The assay concerns the target T1, S. cerevisiae FACT (heterodimer of Spt16 and Pob3) (S. cerevisiae, UniProt P32558 1-1035; Q04636 1-552).
T1 construct: Spt16, subunit of FACT, S. cerevisiae; Pob3, subunit of FACT, S. cerevisiae
In words: SEC; size exclusion chromatography runs of Chd1 constructs with FACT, fractions analysed by SDS-PAGE. The conditions noted are these: both partners purified. (In general: Size exclusion chromatography separates by hydrodynamic size, large species first.)

T1 sequence (P32558 whole entry, chain 1 of 2): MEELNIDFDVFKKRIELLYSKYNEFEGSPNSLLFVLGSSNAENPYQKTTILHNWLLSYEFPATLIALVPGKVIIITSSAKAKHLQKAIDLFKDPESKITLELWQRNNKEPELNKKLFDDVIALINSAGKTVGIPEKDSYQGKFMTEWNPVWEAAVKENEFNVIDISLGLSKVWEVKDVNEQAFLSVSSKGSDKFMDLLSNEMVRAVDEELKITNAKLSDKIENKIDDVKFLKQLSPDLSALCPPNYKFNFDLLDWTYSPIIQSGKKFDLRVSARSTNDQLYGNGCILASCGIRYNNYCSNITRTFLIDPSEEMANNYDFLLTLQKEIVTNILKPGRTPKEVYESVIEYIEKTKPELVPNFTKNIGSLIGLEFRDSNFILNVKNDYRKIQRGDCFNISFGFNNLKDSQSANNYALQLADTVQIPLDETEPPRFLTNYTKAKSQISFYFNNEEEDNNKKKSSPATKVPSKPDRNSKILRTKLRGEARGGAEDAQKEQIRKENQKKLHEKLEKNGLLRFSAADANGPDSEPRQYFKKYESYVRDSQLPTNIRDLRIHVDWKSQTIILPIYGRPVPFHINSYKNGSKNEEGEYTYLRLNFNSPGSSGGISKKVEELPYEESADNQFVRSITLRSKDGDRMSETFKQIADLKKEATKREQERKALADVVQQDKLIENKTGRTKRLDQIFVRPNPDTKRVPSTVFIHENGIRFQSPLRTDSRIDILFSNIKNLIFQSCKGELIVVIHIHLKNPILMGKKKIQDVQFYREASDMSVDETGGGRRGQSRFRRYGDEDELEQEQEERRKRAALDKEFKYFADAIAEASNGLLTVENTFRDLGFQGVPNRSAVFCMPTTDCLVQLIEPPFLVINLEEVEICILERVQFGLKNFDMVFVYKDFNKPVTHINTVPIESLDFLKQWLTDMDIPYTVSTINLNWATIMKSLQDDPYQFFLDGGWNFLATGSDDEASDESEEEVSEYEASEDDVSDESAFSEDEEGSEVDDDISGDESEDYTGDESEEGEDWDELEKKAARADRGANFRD
T1 sequence (Q04636 whole entry, chain 2 of 2): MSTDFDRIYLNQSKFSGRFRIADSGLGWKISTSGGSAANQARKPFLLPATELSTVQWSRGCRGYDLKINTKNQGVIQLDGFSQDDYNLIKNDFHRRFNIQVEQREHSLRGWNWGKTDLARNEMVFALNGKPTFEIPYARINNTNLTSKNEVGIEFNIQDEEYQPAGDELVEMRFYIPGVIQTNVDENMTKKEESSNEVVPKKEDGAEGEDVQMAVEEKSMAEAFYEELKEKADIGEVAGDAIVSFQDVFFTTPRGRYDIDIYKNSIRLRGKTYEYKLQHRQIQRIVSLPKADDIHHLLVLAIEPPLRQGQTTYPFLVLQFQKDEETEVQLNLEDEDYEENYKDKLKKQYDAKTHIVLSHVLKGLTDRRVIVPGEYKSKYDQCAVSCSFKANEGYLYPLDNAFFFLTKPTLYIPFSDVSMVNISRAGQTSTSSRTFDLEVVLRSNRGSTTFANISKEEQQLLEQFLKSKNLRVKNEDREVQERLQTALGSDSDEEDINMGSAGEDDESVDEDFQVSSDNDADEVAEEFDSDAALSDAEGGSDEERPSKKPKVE

B1: S. cerevisiae Chd1 (enzyme)
chain: not shown
notes: Chd1, S. cerevisiae, chromatin remodeler; 1468 residues by the printed limits of the truncations; also called full-length Chd1
Consider B1, for which the binding result was “binds”.

These data come from article PMC8046669, “Structural basis of nucleosome transcription mediated by Chd1 and FACT” (Nature Structural & Molecular Biology, 2021).
